# B1: KRT15 (parent)
# chain: FGGGSTRGGSLLAGGGGFGGGSLS
# B2: WDR41 (parent)
# chain: HVGELIIWDALDWTMQAYERNFWD
# Variants of: B1
# Test: protein stability index of a GFP-peptide fusion (GPS, HEK-293T) (PSI 1-6); higher = more stable
# Settings: c terminus: a fixed tail appended
# 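Further: lentivirally expressed fusions sorted by FACS into six bins by GFP to DsRed ratio, PSI derived from sequencing read proportions per bin multiplied by bin number.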
row,Variant,protein stability index
1,FGGGQTRGGSLLAGGGGFGGGSLS [S5Q],2.55
2,FGGGSTDGGSLLAGGGGFGGGSLS [R7D],1.54
3,FGGGSTRGGSLLAGGGMFGGGSLS [G17M],1.07
4,FGGGSTRGGSLLAGGGEFGGGSLS [G17E],2.74
5,FGGGSTRGGSLLAGGDGFGGGSLS [G16D],1.84
6,FGGGSTRGGSLLAGGGGFSGGSLS [G19S],2.06
7,FQGGSTRGGSLLAGGGGFGGGSLS [G2Q],2
8,FGGGSTRGGSLCAGGGGFGGGSLS [L12C],1.7
9,FGGGSTRGGSLGAGGGGFGGGSLS [L12G],3.23
10,FGGGSTRGGSLLAGGGGFGCGSLS [G20C],1.41
11,FGGGSTRGGSLLAGGGGFGGGFLS [S22F],2.49
12,FGGGSTRGGSLLVGGGGFGGGSLS [A13V],1.94
13,FGGGSTREGSLLAGGGGFGGGSLS [G8E],1.64
14,FGGGSTRGGSLLASGGGFGGGSLS [G14S],2.43
15,FGGLSTRGGSLLAGGGGFGGGSLS [G4L],2.04
16,FGGPSTRGGSLLAGGGGFGGGSLS [G4P],2.94
17,FGGISTRGGSLLAGGGGFGGGSLS [G4I],2.59
18,FGGRSTRGGSLLAGGGGFGGGSLS [G4R],1.58
19,FGLGSTRGGSLLAGGGGFGGGSLS [G3L],2.42
20,FGMGSTRGGSLLAGGGGFGGGSLS [G3M],2.74

# Variants of: B2
# Test: as above
# Settings: c terminus: a fixed tail appended
row,Variant,protein stability index
1,HVGELDIWDALDWTMQAYERNFWD [I6D],1.81
2,HVGELYIWDALDWTMQAYERNFWD [I6Y],2.39
3,HVGELHIWDALDWTMQAYERNFWD [I6H],1.59
4,HVGELNIWDALDWTMQAYERNFWD [I6N],2.17
5,HVGELMIWDALDWTMQAYERNFWD [I6M],2.35
6,HVGELRIWDALDWTMQAYERNFWD [I6R],1.55
7,HVGELAIWDALDWTMQAYERNFWD [I6A],1.75
8,HVGELCIWDALDWTMQAYERNFWD [I6C],1.47
9,HVGELKIWDALDWTMQAYERNFWD [I6K],2.75
10,HVGELSIWDALDWTMQAYERNFWD [I6S],1.66
11,HVGELGIWDALDWTMQAYERNFWD [I6G],1.22
12,HVGELTIWDALDWTMQAYERNFWD [I6T],1.87
13,HVGELPIWDALDWTMQAYERNFWD [I6P],2.41
14,HVGELEIWDALDWTMQAYERNFWD [I6E],1.36
15,HVGELWIWDALDWTMQAYERNFWD [I6W],2.51
16,HVGELQIWDALDWTMQAYERNFWD [I6Q],1.62
17,HVGGLIIWDALDWTMQAYERNFWD [E4G],1.85
18,HVGFLIIWDALDWTMQAYERNFWD [E4F],3.77
19,HVGPLIIWDALDWTMQAYERNFWD [E4P],1.81
20,HVGDLIIWDALDWTMQAYERNFWD [E4D],1.86
21,HVGLLIIWDALDWTMQAYERNFWD [E4L],2.92
22,HVGNLIIWDALDWTMQAYERNFWD [E4N],2.42
23,HVGMLIIWDALDWTMQAYERNFWD [E4M],2.15
24,HVGYLIIWDALDWTMQAYERNFWD [E4Y],3.22
25,HVGALIIWDALDWTMQAYERNFWD [E4A],2.85

row,Variant,protein stability index
1,HVGHLIIWDALDWTMQAYERNFWD [E4H],2.13
2,HVGKLIIWDALDWTMQAYERNFWD [E4K],1.84
3,HVGVLIIWDALDWTMQAYERNFWD [E4V],3.53
4,HVGSLIIWDALDWTMQAYERNFWD [E4S],2.34
5,HVGQLIIWDALDWTMQAYERNFWD [E4Q],2.46
6,HCGELIIWDALDWTMQAYERNFWD [V2C],1.97
7,HIGELIIWDALDWTMQAYERNFWD [V2I],2.08
8,HEGELIIWDALDWTMQAYERNFWD [V2E],1.51
9,HLGELIIWDALDWTMQAYERNFWD [V2L],3.8
10,HTGELIIWDALDWTMQAYERNFWD [V2T],1.92
11,HHGELIIWDALDWTMQAYERNFWD [V2H],2.44
12,HRGELIIWDALDWTMQAYERNFWD [V2R],1.09
13,HQGELIIWDALDWTMQAYERNFWD [V2Q],2.35
14,HMGELIIWDALDWTMQAYERNFWD [V2M],2.59
15,HPGELIIWDALDWTMQAYERNFWD [V2P],1.54
16,HAGELIIWDALDWTMQAYERNFWD [V2A],1.58
17,HNGELIIWDALDWTMQAYERNFWD [V2N],1.48
18,HFGELIIWDALDWTMQAYERNFWD [V2F],2.69
19,HDGELIIWDALDWTMQAYERNFWD [V2D],2.01
20,HSGELIIWDALDWTMQAYERNFWD [V2S],2.47
21,HGGELIIWDALDWTMQAYERNFWD [V2G],1.65
22,HKGELIIWDALDWTMQAYERNFWD [V2K],2.35
23,HVGELIIEDALDWTMQAYERNFWD [W8E],2.13
24,HVGELIIRDALDWTMQAYERNFWD [W8R],2.78
25,HVGELIIKDALDWTMQAYERNFWD [W8K],1.67

row,Variant,protein stability index
1,HVGELIITDALDWTMQAYERNFWD [W8T],1.28
2,HVGELIIVDALDWTMQAYERNFWD [W8V],2.29
3,HVGELIISDALDWTMQAYERNFWD [W8S],1.51
4,HVGELIINDALDWTMQAYERNFWD [W8N],1.3
5,HVGELIILDALDWTMQAYERNFWD [W8L],3.77
6,HVGELIIHDALDWTMQAYERNFWD [W8H],1.61
7,HVGELIIPDALDWTMQAYERNFWD [W8P],2.16
8,HVGELIIDDALDWTMQAYERNFWD [W8D],2.74
9,HVGELIIMDALDWTMQAYERNFWD [W8M],2.85
10,HVGELIIADALDWTMQAYERNFWD [W8A],2.8
11,HVGELIIGDALDWTMQAYERNFWD [W8G],2.89
12,HVGELIIYDALDWTMQAYERNFWD [W8Y],1.42
13,HVGELIIIDALDWTMQAYERNFWD [W8I],2.39
14,HVGELIICDALDWTMQAYERNFWD [W8C],1.88
15,HVGELIIQDALDWTMQAYERNFWD [W8Q],1.98
16,HVGELIIWDATDWTMQAYERNFWD [L11T],1.46
17,HVGELIIWDAADWTMQAYERNFWD [L11A],1.61
18,HVGELIIWDAVDWTMQAYERNFWD [L11V],3.1
19,HVGELIIWDAYDWTMQAYERNFWD [L11Y],2.08
20,HVGELIIWDAIDWTMQAYERNFWD [L11I],3.82
21,HVGELIIWDANDWTMQAYERNFWD [L11N],2.23
22,HVGELIIWDAHDWTMQAYERNFWD [L11H],2.06
23,HVGELIIWDAPDWTMQAYERNFWD [L11P],2.03
24,HVGELIIWDAKDWTMQAYERNFWD [L11K],2.67

# Reference: the supplement of paper PMC10567573
